Results reported in publication PMC5356841 (2016).
Each block holds one binder with its values, some of them ahead of it.

Molecular target: individual catalytic domain of human MT1-MMP (MT1-CAT) (human, UniProt P50281 114-287, biotin (EZ-Link sulfo-NHS-LC-biotin, 1:20 enzyme-biotin molar ratio) in the Fab binding ELISA only; unlabelled in the competition ELISA and the cleavage assays)
Experiment: ELISA

- Kd: 45 nM
B1: 3E9 Fab (Fab, V domains shown)
VH: EVQLVESGGGLVQPGGSLRLSCAASGFNLYYSSMHWVRQAPGKGLEWVASIYPSYGSTYYADSVKGRFTISADTSKNTAYLQMNSLRAEDTAVYYCARNGRYPGFLKRAHKRLLNFKAYVMDYWGQGTLVTVSS
VL: DIQMTQSPSSLSASVGDRVTITCRASQSVSSAVAWYQQKPGKAPKLLIYSASSLYSGVPSRFSGSRSGTDFTLTISSLQPEDFATYYCQQGSWYLITFGQGTKVEIK

- Kd: 21 nM
B2: 2B5 Fab (Fab, V domains shown)
VH: EVQLVESGGGLVQPGGSLRLSCAASGFNLSYSSMHWVRQAPGKGLEWVASIYPYSGYTYYADSVKGRFTISADTSKNTAYLQMNSLRAEDTAVYYCARIGVNAWAVKMSQRMLATRGSGWYVMDYWGQGTLVTVSS
VL: DIQMTQSPSSLSASVGDRVTITCRASQSVSSAVAWYQQKPGKAPKLLIYSASSLYSGVPSRFSGSRSGTDFTLTISSLQPEDFATYYCQQSSSYPYSPITFGQGTKVEIK
